Reference: the DeepSol protein solubility set

test: soluble on expression in E. coli; label from the status in PepcDB or PDB records

Sequence	soluble on expression in E. coli
MRCPWRKTRRHSDNGWYGPRNQIRPDDHRLHRKVRKSRGDSRRAGNGSPRARCFEGAQRRGKSDGLSECGRMKNLLEMVELVRGKRMKIAVGAAEDEEVLKAVARAKEEEIVDPVLFGKRKDIETLVERMNLELEAEIVHVEDPFEAVRKAVESVSRNETQILMKGKIKTSDLFSVFLKKEYGLRTGRTLSAVSVHEVPGYHKILIISDGGLVISPNLQQRMDIVENSILVARALGIEKPKIALLGTGDLKSPLTLEIAALSKIFQQRNDCIVDGPLTLDLAISEELASKAGNSPVAGDADILIVPSIETGNILSKSLVYMARGRAAIVVVGGRVPVVLTSRADDEETRFLSIALSVLVAQKKG	soluble
MRDAEKTVGNMIDKLKTAFIGSIDSEGFPNMKAMLQPRKREGIKTIYLTTNTSSMRVAQYRENNHACIYFCDTRFFRGVMLRGTMEVLTDPASKEMIWQEGDTMYYPEGVTDPDYCVLKFTAISGRFYSNFKSESFAVE	not soluble
MRDIVFIERDPYAPIRHCYTVSKILYQGKSPYQEIQVIESPEFGRMLILDGVVQLDEKYEFLYHEYLAHVPLHAHPNPRNVLIIGGGDGGTLREVLKHDIVERAVLVDIDKEVIEVSKKYLPTLSVGFQDPRAIVVNEDGYKYVQDYENEFDVIIVDSTDPVGFAHVLTTEDFFRHVYKALKEDGIFVAQTESIHYHLEMVSNIQQRLKKVFPIVDLYTSVIPIYAGYWWTFSIASKKYPVRTPAREVKVQTKIYDADMHEYAFLPESFYNKIVNGEYKYLEHHHHHH	not soluble
MRDPEFWHNKWAANQIGFHLEDVNPLLIRFWSDLAPKRSEKVLVPLCGKSEDLIWLANQHDSVQGVELSQIAVRSFFAEHFYTPTVTRLNAQHELYQFDELTLFTGDFFTAPVESVDLVYDRAALVALPEEMRAEYAQRVLQLLKPGGRILLVSMDYVQTELSGPPFSVPEAEIRTLFMGCEVRRVYQDTSIDPHLNKRTQAGLSRFAEEVWVIEKSE	not soluble
MRDYVEIGMGREARRTYHLDSVAIVPSRRTRSSKDVDTTWHIDAYTFDIPFMSHPTDALATPDFVIEMDKQGGLGVINAEGLWGRHADLDAAIQEVITAYGDDELDLGSCNRATKKLQELHAAALDTELLVERIAQVRSSGAT	not soluble
MREAMFYEKLDDNKVRCHICPRHCIIKEGERGFCWNRENINGVLYAVGYGKVCSLAIDPIEKKPLFHFYPTTQVVSLAIGGCNFRCLHCQNWTISQFPPDEIPYREMTPEEIVEVAIRYNCPGISYTYTEPTVYYEFMYDTSVIARENGMFNVMITNGYIEKEPLKALPVDAMNIDIKGNADFYKKVCKATLEPVLETCKLAKKLGIWVEVTNLIVPNYNDNIDDLLFIIHFVRDELGRETPLHFSRFHPDYKLTDVPPTPIETLEMARNLAIEEGLKYVYIGNVPGHEGENTYCPNCGALLIERYIFNAKIINLDVETKRCKICGEKIDIVL	not soluble
MREDNQSLSHTTWNCKYHIVFAPKYRRQIIYGRYKASIGRIIRDLCERKGVIIHEANACSDHIHMLISIPPKLSVSSFMGYLKGKSSLMIFDKHANLKYKYGNRKFWCRGYYVDTVGRNQKVIAEYIQNQLQEDRVADQLTLFESVDPFTGEINKRK	not soluble
MREILNHFDRPLNKKNSFQKIQNLSCQTHTKRFYREVKISCEEGGFSVLLDGCPVKTPAKRHFCLPTEVFAAFVAEEFENQKQVIDPAKMPMTRLVNTVIDGIADNMQAVFEDLLRFVACDMIFYRAQTPKELVQRQCEQWDPLLDWAEEKLGARFHVTEGLMHIEQSRESIQAVSNYLRKVESPYMLAALHTITTLTGSALIALAFSEGKIDSEHAWKIAHLDENWMMEQWGIDEETLARSSHKKSEFDAAGTIITTCLLEHHHHHH	not soluble
MREIVSIHIGQAGVQIGNACWELYCLEHGITPDGLMPDDTSYGVEDQSYNTFFSETPSGKHVPRAIFVDLEPTVIDEVRTGTYAKLFHPEQLISGKEDAANNYARGHYTIGKELIDVVMDRVRRLTERCQSLQGFLIFHSFGGGTGSGFTSLVMERLSIDYGKKAKLEFSIYPAPQISTSMVEPYNSLLTTHTTLEHSDCSFIMDNEAIYEITKVNLGVRSPTYTHLNRLLAQVVSSITASLRFDGALNVDLTEFQTNLVPYPRIHFPLVTYAPIISAEKAYHEQLSVSEITNVCFEPGSQMVKCDPRNGKYMACCLLYRGDVVPKEINSAISTIKTKRAIQFVDWCPTGFKVGINYQPPTVVPGGDMAKLQRAVCMLSNTTAIQEAWARLDHKFDLMYAKRAFVHWYVGEGMEEGEFSEAREDMAALEKDYEEVGVDSFDPNDEEY	not soluble
MREMKKLVKIATSLTLMGGIFVSANGVSANTDVTQKSSPNIMIEFDDVTTDHWAYDEITNLVYHRIMYGYGNGKFGTEDNITREQAAAVLHRALGLKRSVFDANPYGDISGKSTMFPYEILHLTNLGIFKGDENGNFRPKDTLTRAELAQILTKAYELKAKSPHTFTDIPEKHWARDAISALQSNKVAVGTGDGKFEPEMLVTRGQFAKFLQRSIDNSPGKME	not soluble
MREPIVAIATPYGESAIGIVRLSGKGVLDLVKKFFKTKREIKPRYAHFGVLYDDKGEELDEGVLIYYKAPHSYTGEDMVELNLHGNPRILKRALELFVNAGARLAEPGEFTKRAFLNGKLDLTQAEAVAELISAKTELARKVALKQLHGELSKHIRPLRETLLELLAYVEADIEFAEEDIPTLTKEQVIQMVDKVIEGINELLKTAKTGKFIREGVKLAIVGRPNVGKSSLFNALLKEERAIVTDIAGTTRDFIEETLQIKGVPVRLVDTAGIRETKDLVERIGVERSKQKVKEADLILFVIDASQEITEEDLRIYEEIKEKDHIVVANKVDLGIRANLEKFKGEKIVKVSALKGTGLEELSEEILKKVGANLEESVNIYISVRHETLLKKAKEVLERFKEEFREKDISPEIAMLDLREASDYLGEILGEITTEDLLGKIFSTFCIGK	soluble
MREQSGINGHEQLATFIDRTDRVLNLVDGFMPETAWLSDIETLTYLHATVSTHRHQVRVPETPMHLDAILADQVLTGGLEPRLGQAHLRTLTIMGFPSQTWPGLLDDLNRLAFDYRWVTRAICLDKTDAAKVLGRIRRQWFAKRKSIAAMLKEIMTNEASALMDSDAANKAVDADMALQELGSDLVGAAYVTATVTIWNDDPRIADERLRLVEKVIQGRDFTCMVERVNAVEAWLGSLPGHVYANVRQPPVSTLNLAHMMPFSAVWAGPERDEHFDAPPLFLAKTEGSTPFRFSLHVGDVGHTLVVGPTGAGKSVLLALMALQFRRYARSQIFAFDFGGSIRAAALAMRGDWHDLGGSLAEDASEPVALQPLAGIDAEEERAWAAEWVAAILAREKVEITPDVKEHVWSALNNLASAPKSERTLTGLSVLLQSQALKQALKPYCVGGPWGRLLDAETERVGSADVLAFETEGLIGTGAAAAVLAYLFHRIEHRLDGRPTLLIVDEGWLALDDEGFASQLREWLKTLRKKNASVIFATQSLADIDGSAIAPAIIESCPTRLFLPNERALEPQIATIYERFGLNDRQIEILSRATPKRDYYCQSRRGNRLFELGLGEVALAFTAASSKGDQILIARLMAEHGPTGFAKAWLEARGVAWATDLIITPQKEKLPLEHHHHHH	soluble
MREVKLVTFDVWNTLLDLNIMLDEFSHQLAKISGLHIKDVANAVIEVRNEIKKMRAQASEDPRKVLTGSQEALAGKLKVDVELVKRATARAILNVDESLVLEGTKEALQFVKERGLKTAVIGNVMFWPGSYTRLLLERFGLMEFIDKTFFADEVLSYKPRKEMFEKVLNSFEVKPEESLHIGDTYAEDYQGARKVGMWAVWINQEGDKVRKLEERGFEIPSIANLKDVIELISKT	soluble
MREVLYRSDIYVFGRYPMSSFIGYPGLSSSSFCTHINFFYASSCTSTARVFRKKWREIFFVLARKNFTSRAKSKIFPRHVFRDMNKEIFRTQTI	not soluble
MREYKLVVLGSGGVGKSALTVQFVQGIFVDEYDPTIEDSYRKQVEVDCQQCMLEILDTAGTEQFTAMRDLYMKNGQGFALVYSITAQSTFNDLQDLREQILRVKDTEDVPMILVGNKCDLEDERVVGKEQGQNLARQWCNCAFLESSAKSKINVNEIFYDLVRQINR	soluble
MRFFKHYAPSMIAKHISRLFNGKIHIHGIGEFRFKDGQLVAPTEAEREHYKMVKEINSEITRLKMAYLEHHHHHH	not soluble
MRFIHALLLAGIAHSAYASEKLTFKTDLEKLEREKAAQIGVAIVDPQGEIVAGHRMAQRFAMCSTFKFPLAALVFERIDSGTERGDRKLSYGPDMIVEWSPATERFLASGHMTVLEAAQAAVQLSDNGATNLLLREIGGPAAMTQYFRKIGDSVSRLDRKEPEMGDNTPGDLRDTTTPIAMARTVAKVLYGGALTSTSTHTIERWLIGNQTGDATLRAGFPKDWVVGEKTGTCANGGRNDIGFFKAQERDYAVAVYTTAPKLSAVERDELVASVGQVITQLILSTDK	soluble
MRFLHTADWQLGMTRHFLNGEAQPRYSASRREAVASLGEIAKRTGAEFVVVSGDVFEHNQLAPRDVSQSLEAMRAIGVPVYLLPGNHDPLDASSVYTSALFVAERPDNVVVLDRAGVHEVRPGVQIVAAPWRSKAPTSDLIGDVLADLPADGVTRVLVGHGGVDILDPDKNKPSLIRMAAVEDALARGAVHYVALGDKHSRTEVGGSGRVWYSGSPEVTNYDDIESDPGHVLVVDIDENDARRAVRVESEKVGRWRFVTLRRSVDTDRDIADLDLNLDLLDDKERTVVRLALTGSLTVTDKAKLDECLDRYARLFAALTTWERHTDIAVIPADGEFDDLGIGGFAAAAVDELVATARSEAAEAEDARAALGLLLRLVDRDKGAALEHHHHHH	soluble
MRFNHFSIVDKNFDEQLAELDQLGFRWSVFWDEKKILKDFLIQSPSDMTALQATAELDVIEFLKSSIELDWEIFWNIALQLLDFVPNFDFEIGKAFEYAKNSNLPQIEAEMTTENIISAFYYLLCTRRKTGMILVEHWVSEGLLPLDNHYHFFNDKSLATFDSSLLEREVLWVESPVDSEQRGENDLIKIQIIRPKSTEKLPVVMTASPYHLGINDKANDLALHDMNVELEEKTSHEIHVEQKLPQKLSAKAKELPIVDKAPYRFTHGWTYSLNDYFLTRGFASIYVAGVGTRSSDGFQTSGDYQQIYSMTAVIDWLNGRARAYTSRKKTHEIKASWANGKVAMTGKSYLGTMAYGAATTGVEGLELILAEAGISSWYNYYRENGLVRSPGGFPGEDLDVLAALTYSRNLDGADFLKGNAEYEKRLAEMTAALDRKSGDYNQFWHDRNYLINTDKVKADVLIVHGLQDWNVTPEQAYNFWKALPEGHAKHAFLHRGAHIYMNSWQSIDFSETINAYFVAKLLDRDLNLNLPPVILQENSKDQVWTMMNDFGANTQIKLPLGKTAVSFAQFDNNYDDETFKKYSKDFNVFKKDLFENKANEAVIDLELPSMLTINGPVELELRLKLNDTKGFLSAQILDFGQKKRLEDKVRVKDFKVLDRGRNFMLDDLVELPLVESPYQLVTKGFTNLQNQSLLTVSDLKADEWFTIKFELQPTIYHLEKADKLRVILYSTDFEHTVRDNRKVTYEIDLSQSKLIIPIESVKN	soluble
MRGFLSGEFELSSVEDAEVVIINSCGVIDFTERKIIRRMLDLKREGKKVVLAGCLTRISKEALSVADSALSPDNLDMVVDAVYSALNGRKLFTERRFIDKAEFSHLKCRLRENAIAIVSISEGCLGKCSFCATKFARGRLRSFSMDAIVREAERAVRAGYREIQLTSQDTGAYGMDKGRAMLPELLRKISEIEGEFRVRVGMMNPQHAVRMLDELINAYSSEKIYKFLHIPVQSGDNRILEDMKRNHTVEDYVEVVEAFRNSFDDVLISTDIIVGFPTETEEAFWKSYELIKETRPDIVNITRYSARKGTPAARLRDIPGWIKKERSRKLTDLMRKIGLENNKRFVGKKLRVLVTKEGKNGRNLARMNSYRAVVTEGAVGEFVEVKIKDCRFNYLIGQLAAEQPQLEHHHHHH	not soluble
